Reference: publication PMC4476257 (Molecular pharmaceutics, 2015)
Read-outs that look alike come from different tables or passages of the source. Bridge positions count the residues as written; N and C are the ends. Square brackets hold non-standard residues; d marks the D form. Ends that are not written are not given here. Peptide text beside a SMILES is read from it. I, II: the chains in the order shown. * marks the point of attachment. Dolaproine = CO[C@@H]([C@@H]1CCCN1)[C@@H](C)C(=O)O; Dil = CC[C@H](C)[C@H](NC)[C@@H](CC(=O)O)OC; X1 = C[C@@H](N*)[C@@H](O)c1ccccc1; NMeV = CN[C@H](C(=O)O)C(C)C; Mpa = O=C(O)CCS

What was measured:
[1] = toxin derivatives conjugated to pHLIP; cited from earlier work
HeLa cells = test: Anti-proliferation assay; details: 5 µM, physiological pH, 2 h treatment, MTT after 72 h, Figures 3A and 3E
[2] = system: HeLa and MDA-MB-231 cells; test: Anti-proliferation assay, statements pooled over both cell lines; type: cell-based, human; details: HeLa and MDA-MB-231 (Figures 3E, 3F), 2.5 µM, 2 h treatment, MTT after 72 h
MDA-MB-231 cells = test: Anti-proliferation assay; type: cell-based, human; details: MDA-MB-231, 1.25 µM, 2 h treatment, MTT after 72 h; Figures 3B and 3D
[3] = system: HeLa and MDA-MB-231 cells; test: Cell membrane integrity assay; type: cell-based, human; details: HeLa and MDA-MB-231, 10 µM, 2 h, pH 7.4 or pH 5.0; mean, n=4; Figure 4
[4] = pH 7.4 to pH 5.0, POPC liposomes, peptide:lipid 1:300, 7 µM, 25 °C
[5] = peptide:lipid 1:300, 7 µM, 25 °C, excitation 295 nm

amanitin
pK of insertion [1]: 5.9

CC[C@H](C)[C@@H]([C@@H](CC(=O)N1CCC[C@H]1[C@H](OC)[C@@H](C)C(=O)N[C@H](C)[C@@H](O)c1ccccc1)OC)N(C)C(=O)[C@@H](NC(=O)[C@@H](NC)C(C)C)C(C)C [MMAE, monomethyl auristatin E] (H-[NMeV]V[Dil][Dolaproine]-X1)
cytotoxicity (HeLa cells): about 70% | cytotoxicity [2]: 20–30%

I: GGEQNPIYWARYADWLFTTPLLLLELALLVDADEGTCG-NH2 / II: [Mpa][NMeV]V[Dil][Dolaproine]-X1 (disulfide I:37-II:1) [pHLIP(D25E)-MMAE]
cell killing at 1.25 µM (percentage as printed) (MDA-MB-231 cells): 49% | disruption of the plasma membrane (trypan blue uptake) [3]: neither conjugates, nor low pH treatment, caused disruption of the membranes | pH-dependent secondary structure transition (CD) [4]: transition from an unstructured conformation to an α-helix | Trp fluorescence emission maximum ([5]; pH 5.0, POPC liposomes): 329 nm | Trp fluorescence emission maximum ([5]; pH 7.4, POPC liposomes): 347 nm
